Laboratory results taken from patent publication US11136597B2, “Compositions for enhancing targeted gene editing and methods of use thereof” (Yale University, priority 2016, dated 2021).

Tests used:
[1] = system: F508del CFTR; assay: Nasal potential difference (NPD) in CF mice after intranasal delivery; type: in vivo, mouse; conditions: intranasal delivery of NPs
Excerpt: (§1) FIG. 7A is a bar graph showing the results of a MQAE (N-(Ethoxycarbonylmethyl)-6-Methoxyquinolinium Bromide) assay (delta(AFU)/(delta(Time (sec)) measuring chloride flux for negative control CFBE cells; CFBE cells treated with blank nanoparticles, PNA2: lys-lys-lys-TJTJJTTT-OOO-TTTCCTCTATGGGTAAG-lys-lys-lys (SEQ ID NO:93)-loaded nanoparticles, PNA2 (SEQ ID NO:93)-loaded nanoparticles with an MPG peptide, γPNA2 lys-lys-lys-TJTJJTTT-OOO-TTTCCTCTATGGGTAAG-lys-lys-lys (SEQ ID NO:69)-loaded nanoparticles; and untreated positive control wildtype 16HBE14o-cells. FIG. 7B is a dot pot showing nasal potential difference (NPD) (pretreatment, after treatment with γPNA2 (SEQ ID NO:69)-loaded nanoparticles, and after treatment with blank nanoparticles) measured using a non-invasive assay used to detect chloride potential differences in vivo.
(§2) A substantial increase in gene editing in F508del CFTR using γtcPNAs with just partial γ substitution and only in the Hoogsteen domain of CF PNA2.

[2] = system: F508del CFTR; assay: MQAE assay measuring chloride flux in CFBE cells; type: cell-based; conditions: NPs containing γtcPNAs with 4 γ residues in the Hoogsteen domain, versus unmodified PNA
Excerpt: as §1, §2

[3] = system: DNA repair genes (Rad51, BRCA2); assay: Gene expression profiling of SCF-treated versus untreated CD117+ cells; type: cell-based, mouse
[4] = system: CD117+ cells from β-globin/GFP transgenic mice; assay: Ex vivo gene editing in pre-sorted CD117+ cells with or without SCF or c-Kit pathway kinase inhibitors; type: cell-based, mouse
Description: For CD117+ cell experiments, Iscove's Modified Dulbecco's Media (IMDM) media containing insulin (10 ng/ml), FCS (10%) and erythropoietin (1 U/ml) was used to culture CD117+ cells after isolation using magnetic separation. Where indicated, 3 μg/ml of SCF (Recombinant murine SCF, catalog #250-03, PeproTech, Rocky Hill, N.J.;) was added prior to nanoparticle treatment. 2 mg/ml of NPs were used to treat 50,000-100,000 CD117+ cells in triplicate for 48 hrs in the above media, followed by flow cytometry analyses as above. Inhibitors were used at concentrations of 200 nM (dasatinib), 1.0 μM (MEK162) and 3.0 μM (BKM120). Dasatanib was obtained from Cayman Chemical (Ann Arbor, Mich.; item #11498) and dissolved according to manufacturer's protocol. MEK162 and BKM120 were obtained from Dr. Harriet Kluger, Yale University.
BD Bioscience kit catalog #558451 (BDImag™ Hematopoietic Progenitor Stem Cell Enrichment Set—DM) was used to isolate CD117 cells. Enrichment for CD117 was confirmed by flow cytometry. CD117+ enriched cells were labeled with CD117-APC (BD Pharmingen™ catalog #558451) antibody. Cells were co-labelled with control IgG antibody (BD Pharmingen™ catalog #555746) for gating purposes. To quantify GFP expression, after CD117 co-labelling, flow cytometry was performed using FACScaliburS by resuspending cells in PBS/1% FBS where green fluorescent cells are measured in the Fl1 channel and APC stained cells are in the Fl4 channel Antibodies for other markers were Ter119 (BD Pharmingen™ catalog #561033) and CD45 APC (BD Pharmingen™ catalog #561018).
To explore the mechanism of the increased gene editing in CD117+ cells, the requirement of c-Kit-dependent signaling for elevated gene correction or whether CD117 simply serves as a marker for the increased susceptibility to gene editing was distinguished. To do this, γtcPNA4/donor DNA NP-mediated gene editing was assayed in pre-sorted CD117+ cells in the presence or absence of selected kinase inhibitors (FIG. 2D). Dasatinib, which inhibits the c-Kit kinase in addition to the BCR/Abl and Src kinases, reduced the gene editing from 7% to 2.0%.

[5] = system: human β-globin gene with the thalassemia-associated IVS2-654 mutation; assay: Disease phenotype in IVS2-654 β-thalassemic mice (blood smears, CBC, reticulocytes, spleen); type: in vivo, mouse; conditions: day 36 after last treatment, four treatments at two-day intervals, SCF i.p., NPs i.v.
Description: The IVS2-654 β-thalassemic mice were also obtained from Ryszard Kole, University of North Carolina (Svasti, et al., Proc Natl Acad Sci USA, 106:1205-1210 (2009)). For treatment of the mice, where indicated SCF (15.6 ug per mouse, Recombinant Mouse SCF, carrier-free, R&D catalog #455-mc-050/CF) was injected intraperitoneally 3 hrs prior to treatment with 4 mg of NPs in 150 μl PBS delivered via retro-orbital intravenous injection. Each mouse received 4 treatments given at 48 hr intervals. Mice were anesthetized with isoflurane followed by retro-orbital bleeding (˜100 μL) using ethylenediaminetetraacetic acid-treated glass capillary tubes. The blood was evacuated into tubes with 5 μL of 0.5 M EDTA acid in heparinized coated tubes. Complete blood counts were performed using a Hemavet 950FS (Drew Scientific, Oxford, Conn.) according to the manufacturer's protocol. Slides containing blood smears were stained with Wright and Giemsa stain for microscopy. Methylene blue staining was used for reticulocyte counts. Spleen images and weights were taken after selected mice were sacrificed on day 36 after the last treatment. Harvested spleens were fixed in 10% neutral buffered formalin and processed by Yale Pathology Tissue Services for H&E, CD61 and E cadherin staining. […]

[6] = system: homology-dependent repair (HDR); assay: Luciferase reporter gene assay for homology-dependent repair (HDR) in CD117+ cells; type: cell-based, mouse
Description: An inactivating I-Sce1 site was cloned 56 amino acids into the firefly luciferase open reading frame under the control of a CMV promoter. The reporter construct also contains a promoterless luciferase gene used as a template for homologous recombination. A double-strand break in the luciferase reporter is created by in vitro digestion with the I-Sce I restriction enzyme (NEB #R0694L). Plasmid DNA was digested with I-Sce 1 for 1 hour at 37° C. at a ratio of 10 units enzyme to 1 μg DNA and then the enzyme was inactivated at 65° C. for 20 minutes. The linearization of the plasmid was confirmed for each digestion via gel electrophoresis and the linear plasmid was purified using the Qiagen Qiaquick spin columns. After separation CD117+ and CD117-cells from bone marrow of β-globin/GFP transgenic mice, cells were transfected using the Lonza 2b Nucleofector Device. 5×10^5 cells were transfected with 1 μg of either the luciferase reporter vector or a positive control firefly luciferase expression vector, along with 50 ng of a renilla luciferase expression plasmid as a transfection efficiency control. All transfections were performed in triplicate. After transfection the cells were plated at a density of 5×10^5 cells/ml in 12-well plates. After 24 hours incubation post transfection, luciferase activity was measured using the Promega Dual Luciferase Assay Kit. In each sample firefly luciferase activity was normalized to the renilla luciferase transfection control. Reporter reactivation was calculated as a ratio of normalized firefly luciferase activity in the cells transfected with the reporter plasmid to the positive control.
To test whether the above increases in DNA repair gene expression could be correlated with functional differences in DNA repair, a luciferase-based assay was used to quantify repair of DNA double-strand breaks (DSBs) by HDR. In this assay, repair of a DSB in a reporter plasmid via intramolecular homologous recombination creates (“reactivates”) a functional luciferase gene (FIG. 2H), and so the assay provides a measure of HDR capacity (FIG. 2J).

Molecule	activity in vivo by NPD measurements [1]	increase in activity for CFTR gene correction (MQAE assay) [2]	DNA repair gene expression [3]	change of gene editing frequency on SCF treatment ([4]; CD117+ cells)	gene editing frequency in CD117+ cells treated with SCF ([4]; γtcPNA4/donor DNA NPs, 3 μg/ml SCF added prior to nanoparticle treatment)	RBC morphology in blood smears [5]	HDR repair activity (luciferase reactivation) in CD117+ cells ([6]; CD117+ cells)	fold increase in HDR ([6]; CD117+ cells treated with SCF)
lys-lys-lys-TJTJJTTT-OOO-TTTCCTCTATGGGTAAG-lys-lys-lys (lysine caps, linker, γ residues, in nanoparticles, as printed in the source, key not given here) [γPNA2, CF PNA2 with 4 γ residues in the Hoogsteen domain, delivered in nanoparticles]	substantial increase in activity	more than 50%						
SCF: recombinant murine stem cell factor, the ligand for c-Kit (protein) MKEICGNPVTDNVKDITKLVANLPNDYMITLNYVAGMDVLPSHCWLRDMVIQLSLSLTTLLDKFSNISEGLSNYSIIDKLGKIVDDLVLCMEENAPKNIKESPKRPETRSFTPEEFFSIFNRSIDAFKDFMVASDTSDCVLSSTLGPEKDSRVSVTKPFMLPPVA			additional up-regulation of numerous DNA repair genes	almost doubles the frequency	~15%	not	further boosted	2 fold
